Assay results published in US20240182592A1 (CHIA TAI TIANQING PHARMACEUTICAL GROUP, published 2024).
Residue numbers refer to the chain shown, from its start.

T1: human BCMA protein (human, UniProt Q02223 1-54, limits assumed)
T1 construct: also called hBCMA; Antigen BCMA
T1 sequence (looked up): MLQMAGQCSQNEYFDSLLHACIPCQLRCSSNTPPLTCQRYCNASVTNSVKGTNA

B1: 1A11-V1 (antibody, human IgG1, V domains shown)
VH: QVQLVESGGGLVQPGGSLRLSCAASGFTFNSACMGWFRQAPGKGREGVSRIETGYGGTVYADSVKGRFTISRDNSKNTVYLQMNSLRAEDTAVYYCAAKRSWCTPTWWHELDYNYWGQGTQVTVSS
notes: Humanized VHH fused to human IgG1 Fc; also called humanized antibody 1A11-V1
B2: 1A11-V2 (antibody, human IgG1, V domains shown)
VH: B1 VH with G44E, R87K
notes: Humanized VHH fused to human IgG1 Fc; also called humanized antibody 1A11-V2
B3: 1A10-V1 (antibody, human IgG1, V domains shown)
VH: QVQLVESGGGLVQPGGSLRLSCAASGYSSNVACMAWYRQAPGKGLEWVATIVADFGTTNYAASVKGRFTISQDNSKNTVYLQMNSLRAEDTAVYYCAATQRGGIDWCDEINYWGQGTLVTVSS
notes: Humanized VHH fused to human IgG1 Fc; also called humanized antibody 1A10-V1
B4: 1A10-V2 (antibody, human IgG1, V domains shown)
VH: B3 VH with G44E, L45R, A49S
notes: Humanized VHH fused to human IgG1 Fc; also called humanized antibody 1A10-V2

The binders below were run against T1, human BCMA protein (assay: SPR (Biacore T200), antibody captured by anti-hIgG, human BCMA as analyte, 1:1 model).
Method: The affinity of the test antibody for human BCMA protein was determined by Biacore T200 (GE) as follows:
The response signals were detected in real time using Biacore software, and association and dissociation curves were obtained. The buffer used in the experiment was Biacore universal buffer (137 mM NaCl, 2.7 mM KCl, 10 mM Na₂HPO₄.12H₂O, 1.8 mM KH₂PO₄, 0.05% surfactant P-20 (w/v), pH 7.4). […] The flow rate in the flow cell was at 50 μL/min, the association was performed for 240 s, the dissociation was performed for 1400 s, the regeneration was performed using 3 M MgCl₂ (GE) for 60 s, and the baseline was stable. Results were obtained by calculation according to the affinity and kinetics 1:1 binding mode in biacore evaluation software.

In order of rising Kd:
1. B3  0.337 nM
2. B4  1.31 nM
3. B2  4.37 nM
4. B1  5.05 nM
